The source of these data is paper PMC11770034, “Characterization of the oxygen-tolerant formate dehydrogenase from Clostridium carboxidivorans” (Frontiers in Microbiology, 2025).

This data set concerns T1, NC(=O)C1=CN([C@@H]2O[C@H](COP(=O)(O)OP(=O)(O)OC[C@H]3O[C@@H](n4cnc5c(N)ncnc54)[C@H](O)[C@@H]3O)[C@@H](O)[C@H]2O)C=CC1.
T1 construct: Mo form
The experiment in a line: purified protein. The class given is biochemical, Clostridium carboxidivorans. The settings on record: 100 mM sodium bicarbonate, 50 mM Bis-Tris pH 6.8, 30 °C, oxic, Mo-loaded enzyme, part of preparation may be inactive.

As for “ccFDH (Mo-ccFDH) (Clostridium carboxidivorans P7; U139C)”, the Km (commonly the concentration of substrate that gives half-maximal velocity) was 60 ± 7 µM; the Vmax (usually the rate approached at saturating substrate) was 5.83 µmol/min; the kcat (commonly the number of substrate molecules converted per active site and unit of time at saturation) came out at 0.02 ± 0.0008 s⁻¹; the catalytic efficiency (kcat/Km) (in general, the turnover number divided by the Michaelis constant) worked out at 310 ± 84 M⁻¹ s⁻¹.
